19 molecules from US20190085323A1 (published 2019) can be followed below.

The target of experiment [1] is T1, HER2-ECD (recombinant extracellular domain of human epidermal growth factor receptor 2) (human, UniProt P04626 23-652).
T1 construct: extracellular domain; Recombinant HER2-ECD coated on ELISA plates
The experiment is described as follows: ELISA, IgG1 titrated on immobilized HER2-ECD.

For experiment [2], the target named is T2, HER2 on the surface of N87 gastric cancer cells (human, UniProt P04626 23-1255). Kind of experiment: cell-based or functional assay.
In experiment [3] the target is T2, HER2 on the surface of N87 gastric …. Kind of experiment: flow cytometry on N87 cells, 0.5 nM scFv detected with AL1-RFP.

B1: 2835-28 IgG1 (antibody, V domains shown)
VH: EVQLVESGGGLVQPGGSLRLSCKASGYTFTDGSMHWVRQAPGKGLEWVAYINPYFGDTYYADSVKGRFTISADTSKNTAYLQMNSLRAEDTAVYYCARGWIDYWGQGTLVTVSS
VL: DIQMTQSPSSLSASVGDRVTITCKSNQNLLLSNGRTFLYWYQQKPGKAPKLLIYGTSYLYSGVPSRFSGSGSGTDFTLTISSLQPEDFATYYCFQANHLPWTFGQGTKVEIKR
Turning to B1, in experiment [1], the concentration for a half-maximal effect (EC50) worked out at 3.9 ng/mL.

B2: 29TYL#10 IgG1 (antibody, V domains shown)
VH: EVQLVESGGGLVQPGGSLRLSCKASGYTFTDGSMHWVRQAPGKGLEWVAYINPYFGDTYYADSVKGRFTISADTSKNTAYLQMNSLRAEDTAVYYCARGWIDYWGQGTLVTVSS
VL: DIQMTQSPSSLSASVGDRVTITCKSNQNLLLSNGRTFLYWYQQKPGKAPKLLIYGTSYLYSGVPSRFSGSGSGTDFTLTISSLQPEDFATYYCFQANHLPWTFGQGTKVEIKR
For B2, in experiment [1], the 50% effective concentration (EC50) was found to be 3.8 ng/mL.

B3: 35WYK-16 IgG1 (antibody, V domains shown)
VH: EVQLVESGGGLVQPGGSLRLSCKASGYTFGTSWMHWVRQAPGKGLEWVAGITPYYGLTFYADSVKGRFTISADTSKNTAYLQMNSLRAEDTAVYYCARGNLDYWGQGTLVTVSS
VL: DIQMTQSPSSLSASVGDRVTITCKSNQNLLLSNGRTFLYWYQQKPGKAPKLLIYDVSDLYSGVPSRFSGSGSGTDFTLTISSLQPEDFATYYCFQGNNFPYTFGQGTKVEIKR
On to B3, for which, in experiment [1], the EC50 was found to be 6.2 ng/mL.

B4: 29TYL#1 IgG1 (antibody, V domains shown)
VH: EVQLVESGGGLVQPGGSLRLSCKASGYTFSTGSMHWVRQAPGKGLEWVAHINPHFGLTLYADSVKGRFTISADTSKNTAYLQMNSLRAEDTAVYYCAGSGFDYWGQGTLVTVSS
VL: DIQMTQSPSSLSASVGDRVTITCKSNQNLLLSNGWTFLNWYQQKPGKAPKLLISRISDLYSGVPSRFSGSGSGTDFTLTISSLQPEDFATYYCFQASDFPYTFGQGTKVEIKR
Turning to B4, the 50% effective concentration (EC50) in experiment [1] was 4.1 ng/mL.

B5: 35WYK-9 IgG1 (antibody, V domains shown)
VH: EVQLVESGGGLVQPGGSLRLSCKASGYTFSHWGMHWVRQAPGKGLEWVAGIYPYFGNTYYADSVKGRFTISADTSKNTAYLQMNSLRAEDTAVYYCARGLLDYWGQGTLVTVSS
VL: DIQMTQSPSSLSASVGDRVTITCKSNQNLLLSNGRTFLHWYQQKPGKAPKLLIFDVSNLYSGAPSRFSGSGSGTDFTLTISSLQPDDFATYYCSQTSRFPWTFGQGTKVEIKR
Regarding B5, the EC50 in experiment [1] was 5.7 ng/mL.

B6: 31YCM#5 source scFv (scFv)
chain: DIQMTQSPSSLSASVGDRVTITCKSNQNLLDSHGWTYLHWYQQKPGKAPKLLIYDASNLYSGVPSRFSGSGSGTDFTLTISSLQPEDFATYYCSQSYRLPYTFGQGTKVEIKREVQLVESGGGLVQPGGSLRLSCKASGYTFGGSYMHWVRQAPGKGLEWVARIYPHYGYTYYADSVKGRFTISADTSKNTAYLQMNSLRAEDTAVYYCARGDDHFDYWGQGTLVTVSSASAAA
As for B6, in experiment [2], the “% cell viability (AL1)” value worked out at 89.5% and the “% cell viability (AL2)” value was found to be 71.8%. This molecule also displayed an MFI in experiment [3] of 165.

B7: 31YCM#3 IgG1 (antibody, V domains shown)
VH: EVQLVESGGGLVQPGGSLRLSCKASGYTFARSGMHWVRQAPGKGLEWVAGISPNYGLTHYADSVKGRFTISADTSKNTAYLQMNSLRAEDTAVYYCARGFGVLDYWGQGTLVTVSS
VL: DIQMTQSPSSLSASVGDRVTITCKSNQNLLISGNQWTFLNWYQQKPGKAPKLLIYDVSRLYSGVPSRFSGSGSGTDFTLTISSLQPEDFATYYCYQGSDFPGTFGQGTKVEIKR
With B7, the EC50 in experiment [1] was found to be 7.3 ng/mL.

B8: 31YCM#5 IgG1 (antibody, V domains shown)
VH: EVQLVESGGGLVQPGGSLRLSCKASGYTFGGSYMHWVRQAPGKGLEWVARIYPHYGYTYYADSVKGRFTISADTSKNTAYLQMNSLRAEDTAVYYCARGDDHFDYWGQGTLVTVSS
VL: DIQMTQSPSSLSASVGDRVTITCKSNQNLLDSHGWTYLHWYQQKPGKAPKLLIYDASNLYSGVPSRFSGSGSGTDFTLTISSLQPEDFATYYCSQSYRLPYTFGQGTKVEIKR
notes: also called 3 YCM #5
For the molecule B8, the half-maximal effective concentration (EC50) in experiment [1] amounted to 6.3 ng/mL.

B9: 30CHS-12 IgG1 (antibody, V domains shown)
VH: EVQLVESGGGLVQPGGSLRLSCAASGFTISDYWIHWVRQAPGKGLEWVAGINPYYGVTVYADSVKGRFTISADTSKNTAYLQMNSLRAEDTAVYYCARGGVLDYWGQGTLVTVSS
VL: DIQMTQSPSSLSASVGDRVTITCKSNQNLLDSGNQGTFLNWYQQKPGKAPKLLIFGTSHLYSGVPSRFSGSGSGTDFTLTISSLQPEDFATYYCSQSTDLPFTFGQGTKVEIKR
Regarding B9, the 50% effective concentration (EC50) in experiment [1] is 41 ng/mL.

B10: 30CHS-13 IgG1 (antibody, V domains shown)
VH: EVQLVESGGGLVQPGGSLRLSCKASGYTFGHYSMFWVRQAPGKGLEWVASIYPHYGHTYYADSVKGRFTISADTSKNTAYLQMNSLRAEDTAVYYCARGHWLDYWGQGTLVTVSS
VL: DIQMTQSPSSLSASVGDRVTITCKSNQNLLDSGNQRTYLNWYQQKPGKAPKLLIYHTSRLYSGVPSRFSGSGSGTDFTLTISSLQPEDFATYYCSQTFRHPGTFGQGTKVEIKR
Regarding B10, the 50% effective concentration (EC50) in experiment [1] is 41 ng/mL.

B11: 30CHS-41 IgG1 (antibody, V domains shown)
VH: EVQLVESGGGLVQPGGSLRLSCKASGYTFTHWGMHWVRQAPGKGLEWVARINPYYGLTHYADSVKGRFTISADTSKNTAYLQMNSLRAEDTAVYYCARGHWLDYWGQGTLVTVSS
VL: DIQMTQSPSSLSASVGDRVTITCKSNQNLLDSGHQRTYLNWYQQKPGKAPKLLIYHTSLLYSGVPSRFSGSGSGTDFTLTISSLQPEDFATYYCSQTFRHPGTFGQGTKVEIKR
For B11, the concentration for a half-maximal effect (EC50) in experiment [1] stood at 5 ng/mL.

B12: 35WYK-16 source scFv (scFv)
chain: DIQMTQSPSSLSASVGDRVTITCKSNQNLLLSNGRTFLYWYQQKPGKAPKLLIYDVSDLYSGVPSRFSGSGSGTDFTLTISSLQPEDFATYYCFQGNNFPYTFGQGTKVEIKREVQLVESGGGLVQPGGSLRLSCKASGYTFGTSWMHWVRQAPGKGLEWVAGITPYYGLTFYADSVKGRFTISADTSKNTAYLQMNSLRAEDTAVYYCARGNLDYWGQGTLVTVSSASAAA
Take B12: in experiment [2], the “% cell viability (AL1)” value was 72.2% and the “% cell viability (AL2)” value came to 41.4%. In addition, the MFI in experiment [3] came out at 299.

B13: 30CHS-41 source scFv (scFv)
chain: DIQMTQSPSSLSASVGDRVTITCKSNQNLLDSGHQRTYLNWYQQKPGKAPKLLIYHTSLLYSGVPSRFSGSGSGTDFTLTISSLQPEDFATYYCSQTFRHPGTFGQGTKVEIKREVQLVESGGGLVQPGGSLRLSCKASGYTFTHWGMHWVRQAPGKGLEWVARINPYYGLTHYADSVKGRFTISADTSKNTAYLQMNSLRAEDTAVYYCARGHWLDYWGQGTLVTVSSASAAA
In the case of B13, in experiment [2], the “% cell viability (AL1)” value stood at 77.6% and the “% cell viability (AL2)” value came to 71.6%. In experiment [3], this molecule displayed an MFI of 153.

B14: 35WYK-9 source scFv (scFv)
chain: DIQMTQSPSSLSASVGDRVTITCKSNQNLLLSNGRTFLHWYQQKPGKAPKLLIFDVSNLYSGAPSRFSGSGSGTDFTLTISSLQPDDFATYYCSQTSRFPWTFGQGTKVEIKREVQLVESGGGLVQPGGSLRLSCKASGYTFSHWGMHWVRQAPGKGLEWVAGIYPYFGNTYYADSVKGRFTISADTSKNTAYLQMNSLRAEDTAVYYCARGLLDYWGQGTLVTVSSASAAA
For B14, in experiment [2], the “% cell viability (AL1)” value was found to be 84.7% and the “% cell viability (AL2)” value was 80.9%. The MFI in experiment [3] turned out to be 265.

B15: 35CPT-9 IgG1 (antibody, V domains shown)
VH: EVQLVESGGGLVQPGGSLRLSCKASGYTFGDYGMHWVRQAPGKGLEWVAHIAPNDGITHYADSVKGRFTISADTSKNTAYLQMNSLRAEDTAVYYCARGYGWYDHVMDYWGQGTLVTVSS
VL: DIQMTQSPSSLSASVGGRVTITCKSNQNLLDSYGRTYLYWYQQKPGKAPKLLISGTSGLYSGVPSRFSGSGSGTDFTLTISSLQPEDFATYYCFQGYDYPFTFGQGTKVEIKR
As to B15, the EC50 in experiment [1] came to 31.7 ng/mL.

B16: 30CHS-13 source scFv (scFv)
chain: DIQMTQSPSSLSASVGDRVTITCKSNQNLLDSGNQRTYLNWYQQKPGKAPKLLIYHTSRLYSGVPSRFSGSGSGTDFTLTISSLQPEDFATYYCSQTFRHPGTFGQGTKVEIKREVQLVESGGGLVQPGGSLRLSCKASGYTFGHYSMFWVRQAPGKGLEWVASIYPHYGHTYYADSVKGRFTISADTSKNTAYLQMNSLRAEDTAVYYCARGHWLDYWGQGTLVTVSSASAAA
On to B16, for which, in experiment [2], the “% cell viability (AL1)” value came out at 75.8% and the “% cell viability (AL2)” value was 77.7%. This molecule also gave an MFI in experiment [3] of 93.

B17: 31YCM#3 source scFv (scFv)
chain: DIQMTQSPSSLSASVGDRVTITCKSNQNLLISGNQWTFLNWYQQKPGKAPKLLIYDVSRLYSGVPSRFSGSGSGTDFTLTISSLQPEDFATYYCYQGSDFPGTFGQGTKVEIKREVQLVESGGGLVQPGGSLRLSCKASGYTFARSGMHWVRQAPGKGLEWVAGISPNYGLTHYADSVKGRFTISADTSKNTAYLQMNSLRAEDTAVYYCARGFGVLDYWGQGTLVTVSSASAAA
In the case of B17, in experiment [2], the “% cell viability (AL1)” value came to 96.4% and the “% cell viability (AL2)” value is 91.5%. Further, in experiment [3], the MFI worked out at 177.

B18: 30CHS-12 source scFv (scFv)
chain: DIQMTQSPSSLSASVGDRVTITCKSNQNLLDSGNQGTFLNWYQQKPGKAPKLLIFGTSHLYSGVPSRFSGSGSGTDFTLTISSLQPEDFATYYCSQSTDLPFTFGQGTKVEIKREVQLVESGGGLVQPGGSLRLSCAASGFTISDYWIHWVRQAPGKGLEWVAGINPYYGVTVYADSVKGRFTISADTSKNTAYLQMNSLRAEDTAVYYCARGGVLDYWGQGTLVTVSSASAAA
B18: in experiment [2], the “% cell viability (AL1)” value was found to be 64.9% and the “% cell viability (AL2)” value was 61.7%. Moreover, the MFI in experiment [3] stood at 198.

B19: 29TYL#1 source scFv (scFv)
chain: DIQMTQSPSSLSASVGDRVTITCKSNQNLLLSNGWTFLNWYQQKPGKAPKLLISRISDLYSGVPSRFSGSGSGTDFTLTISSLQPEDFATYYCFQASDFPYTFGQGTKVEIKREVQLVESGGGLVQPGGSLRLSCKASGYTFSTGSMHWVRQAPGKGLEWVAHINPHFGLTLYADSVKGRFTISADTSKNTAYLQMNSLRAEDTAVYYCAGSGFDYWGQGTLVTVSSASAAA
Consider B19, for which, in experiment [2], the “% cell viability (AL1)” value is 67.5% and the “% cell viability (AL2)” value amounted to 32.7%. In experiment [3], the MFI was determined as 491.
